The text below walks through data of FireProtDB (doi:10.1002/prot.20496).

The conditions of this data set: Capra hircus, pH 7.5, Thermal, Tris-HCl 10 mM, CaCl2 2 mM, whole UniProt chain shown.

Several values for one entry are separate records, joined by “and”; a condition that tells them apart may be missing. Identical values can stand only once.

B1: Alpha-lactalbumin wild type, P00712 (protein)
chain: MMSFVSLLLVGILFHATQAEQLTKCEVFQKLKDLKDYGGVSLPEWVCTAFHTSGYDTQAIVQNNDSTEYGLFQINNKIWCKDDQNPHSRNICNISCDKFLDDDLTDDIVCAKKILDKVGINYWLAHKALCSEKLDQWLCEKL
As usually defined, the Tm is the temperature at which the thermal transition is half complete. B1: the Tm (DSC) is 71 °C and 71.1 °C; the Tm (Fluorescence) is 70.7 °C and 71.2 °C and 69.9 °C.
